This test has as its target T1, glutathione S-transferase-calreticulin (GST-CRT) (UniProt P15253 18-418).
T1 construct: calreticulin from the plasmid pGEX-3X-GST-CRT (Baksh and Michalak, 1991; from M. Michalak); also called WT GST-CRT; GST-CRT-WT; source: E. coli BL21, purified (glutathione sepharose)
T1 sequence (looked up): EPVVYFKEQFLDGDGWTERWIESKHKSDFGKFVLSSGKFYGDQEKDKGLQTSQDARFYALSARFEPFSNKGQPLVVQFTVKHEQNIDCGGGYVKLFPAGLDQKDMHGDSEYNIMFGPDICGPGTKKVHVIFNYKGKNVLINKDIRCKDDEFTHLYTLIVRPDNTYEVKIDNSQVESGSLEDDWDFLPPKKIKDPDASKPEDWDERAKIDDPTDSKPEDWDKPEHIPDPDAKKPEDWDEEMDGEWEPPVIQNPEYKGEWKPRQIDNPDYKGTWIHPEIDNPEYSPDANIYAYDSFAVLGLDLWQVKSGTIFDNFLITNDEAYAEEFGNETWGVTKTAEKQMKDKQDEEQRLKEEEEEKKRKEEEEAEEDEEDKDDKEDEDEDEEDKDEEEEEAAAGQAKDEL
Put plainly: pull-down; GST-CRT or GST-CRT-Y109A on glutathione beads, 16 h at 4 C with lysate (MNT: 20 mM MES, 100 mM NaCl, 30 mM Tris pH 7.5, 0.5% Triton X-100, protease inhibitors, 20 mM NEM) of ALG6-/-, ALG6/UGGT1-/- or ALG6/UGGT2-/- HEK293-EBNA1-6E cells treated with 500 uM DNJ for 14 h; immunoblot; percent reglucosylation = (GST-CRT lane minus Y109A lane) / total in whole cell lysate x 100. The following applies: one partner purified. (A western blot detects proteins with antibodies after separation by electrophoresis.)

B1: ectonucleotide pyrophosphatase/phosphodiesterase family member 1 (ENPP1) (enzyme, human (endogenous in HEK293-EBNA1-6E), UniProt P22413 1-925, looked up)
chain: MERDGCAGGGSRGGEGGRAPREGPAGNGRDRGRSHAAEAPGDPQAAASLLAPMDVGEEPLEKAARARTAKDPNTYKVLSLVLSVCVLTTILGCIFGLKPSCAKEVKSCKGRCFERTFGNCRCDAACVELGNCCLDYQETCIEPEHIWTCNKFRCGEKRLTRSLCACSDDCKDKGDCCINYSSVCQGEKSWVEEPCESINEPQCPAGFETPPTLLFSLDGFRAEYLHTWGGLLPVISKLKKCGTYTKNMRPVYPTKTFPNHYSIVTGLYPESHGIIDNKMYDPKMNASFSLKSKEKFNPEWYKGEPIWVTAKYQGLKSGTFFWPGSDVEINGIFPDIYKMYNGSVPFEERILAVLQWLQLPKDERPHFYTLYLEEPDSSGHSYGPVSSEVIKALQRVDGMVGMLMDGLKELNLHRCLNLILISDHGMEQGSCKKYIYLNKYLGDVKNIKVIYGPAARLRPSDVPDKYYSFNYEGIARNLSCREPNQHFKPYLKHFLPKRLHFAKSDRIEPLTFYLDPQWQLALNPSERKYCGSGFHGSDNVFSNMQALFVGYGPGFKHGIEADTFENIEVYNLMCDLLNLTPAPNNGTHGSLNHLLKNPVYTPKHPKEVHPLVQCPFTRNPRDNLGCSCNPSILPIEDFQTQFNLTVAEEKIIKHETLPYGRPRVLQKENTICLLSQHQFMSGYSQDILMPLWTSYTVDRNDSFSTEDFSNCLYQDFRIPLSPVHKCSFYKNNTKVSYGFLSPPQLNKNSSGIYSEALLTTNIVPMYQSFQVIWRYFHDTLLRKYAEERNGVNVVSGPVFDFDYDGRCDSLENLRQKRRVIRNQEILIPTHFFIVLTSCKDTSQTPLHCENLDTLAFILPHRTDNSESCVHGKHDSSWVEELLMLHRARITDVEHITGLSFYQQRKEPVSDILKLKTHLPTFSQED
modifications: monoglucosylated N-glycans (reglucosylated by the UGGTs; sites not stated)
notes: ectonucleotide pyrophosphatase/phosphodiesterase family member 1, human, endogenous; source: endogenous, lysate of CRISPR-edited HEK293-EBNA1-6E cells (ALG6-/- background), DNJ treated
Turning to B1, the “percent reglucosylation (bound by GST-CRT minus GST-CRT-Y109A, of the total in the lysate), ALG6/UGGT2-/- cells” value was 12%.

B2: β-hexosaminidase subunit β (HexB), immature ER-localized proHexB (enzyme, human (endogenous in HEK293-EBNA1-6E), UniProt P07686 43-556, looked up)
chain: ARAPSVSAKPGPALWPLPLLVKMTPNLLHLAPENFYISHSPNSTAGPSCTLLEEAFRRYHGYIFGFYKWHHEPAEFQAKTQVQQLLVSITLQSECDAFPNISSDESYTLLVKEPVAVLKANRVWGALRGLETFSQLVYQDSYGTFTINESTIIDSPRFSHRGILIDTSRHYLPVKIILKTLDAMAFNKFNVLHWHIVDDQSFPYQSITFPELSNKGSYSLSHVYTPNDVRMVIEYARLRGIRVLPEFDTPGHTLSWGKGQKDLLTPCYSRQNKLDSFGPINPTLNTTYSFLTTFFKEISEVFPDQFIHLGGDEVEFKCWESNPKIQDFMRQKGFGTDFKKLESFYIQKVLDIIATINKGSIVWQEVFDDKAKLAPGTIVEVWKDSAYPEELSRVTASGFPVILSAPWYLDLISYGQDWRKYYKVEPLDFGGTQKQKQLFIGGEACLWGEYVDATNLTPRLWPRASAVGERLWSSKDVRDMDDAYDRLTRHRCRMVERGIAAQPLYAGYCNHENM
modifications: monoglucosylated N-glycans (reglucosylated by the UGGTs; sites not stated)
notes: beta-hexosaminidase subunit beta, human, endogenous; the immature or ER-localized pro form, not yet processed into three chains; By immunoblot only proHexB was purified by GST-CRT; source: endogenous, lysate of CRISPR-edited HEK293-EBNA1-6E cells (ALG6-/- background), DNJ treated
Turning to B2, the “percent reglucosylation (bound by GST-CRT minus GST-CRT-Y109A, of the total in the lysate), ALG6/UGGT2-/- cells” value is 20%.
